Laboratory results published in paper PMC9482650, “Quantitative fragmentomics allow affinity mapping of interactomes” (Nature Communications, 2022).

T1: ARHGEF11, O15085
T1 sequence (O15085 42-136, limits assumed, looked up): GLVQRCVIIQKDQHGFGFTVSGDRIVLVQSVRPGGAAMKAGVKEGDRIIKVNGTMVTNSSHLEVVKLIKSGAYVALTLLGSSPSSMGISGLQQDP

T2: DLG3_1, Q92796
T2 sequence (Q92796 125-227, limits assumed, looked up): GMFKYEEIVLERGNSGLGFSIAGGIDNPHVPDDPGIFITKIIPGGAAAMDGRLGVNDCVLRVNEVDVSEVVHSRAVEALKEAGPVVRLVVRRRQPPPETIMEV

T3: DLG3_2, Q92796
T3 sequence (Q92796 221-321, limits assumed, looked up): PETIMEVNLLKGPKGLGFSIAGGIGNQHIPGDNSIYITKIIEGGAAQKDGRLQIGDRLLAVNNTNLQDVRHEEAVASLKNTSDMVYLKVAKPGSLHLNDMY

T4: GRIP1_5, Q9Y3R0
T4 sequence (Q9Y3R0 568-668, limits assumed, looked up): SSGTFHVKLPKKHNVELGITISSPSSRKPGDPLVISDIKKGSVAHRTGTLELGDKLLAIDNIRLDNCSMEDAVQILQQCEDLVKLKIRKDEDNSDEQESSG

T5: LIN7A, O14910
T5 sequence (O14910 103-200, limits assumed, looked up): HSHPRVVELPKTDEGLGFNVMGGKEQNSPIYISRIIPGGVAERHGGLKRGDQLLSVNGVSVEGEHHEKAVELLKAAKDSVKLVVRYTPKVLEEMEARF

T6: MPP6, Q9NZW5
T6 sequence (Q9NZW5 125-219, limits assumed, looked up): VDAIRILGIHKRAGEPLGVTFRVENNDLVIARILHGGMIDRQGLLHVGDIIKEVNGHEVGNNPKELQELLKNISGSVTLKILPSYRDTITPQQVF

T7: RADIL, Q96JH8
T7 sequence (Q96JH8 971-1071, limits assumed, looked up): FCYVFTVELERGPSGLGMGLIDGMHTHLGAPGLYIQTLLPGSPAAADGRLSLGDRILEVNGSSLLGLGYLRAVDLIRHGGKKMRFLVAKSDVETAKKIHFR

T8: SHANK1, Q9Y566
T8 sequence (Q9Y566 658-767, limits assumed, looked up): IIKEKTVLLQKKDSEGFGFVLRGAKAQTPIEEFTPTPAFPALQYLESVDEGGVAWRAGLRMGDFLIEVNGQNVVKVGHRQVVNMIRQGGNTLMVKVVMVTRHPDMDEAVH

T9: SIPA1L2, Q9P2F8
T9 sequence (Q9P2F8 945-1036, limits assumed, looked up): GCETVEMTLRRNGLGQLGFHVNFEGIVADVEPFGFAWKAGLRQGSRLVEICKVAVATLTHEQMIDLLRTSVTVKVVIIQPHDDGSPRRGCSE


What follows are binders tested against AHNAK1, Q09666 (assay: holdup assay). Settings: plain residues with an end cap or a label only (N-terminal biotin on a linker: ado-ado).
Parameters: key: below the threshold = too weak to quantify, mostly under pKd 3.1 to 4

AHNAK1, Q09666, sequence (Q09666 4-100): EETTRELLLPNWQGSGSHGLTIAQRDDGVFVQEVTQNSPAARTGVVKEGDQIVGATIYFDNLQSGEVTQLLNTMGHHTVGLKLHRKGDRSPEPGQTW

Row | Binder | pKd
1 | YYKRPVQEWV [MMP24, Q9Y5R2] | below the threshold
2 | SKSNFGSEPL [KIF17, Q9P2E2] | below the threshold

What follows are binders tested against T1, ARHGEF11, O15085 (assay: holdup assay). Settings: plain residues with an end cap or a label only (N-terminal biotin on a linker: ado-ado).
Parameters: key: below the threshold = too weak to quantify, mostly under pKd 3.1 to 4

Row | Binder | pKd
3 | YYKRPVQEWV [MMP24, Q9Y5R2] | 4.3
4 | SKSNFGSEPL [KIF17, Q9P2E2] | below the threshold

Each binder was assayed against DLG1_1, Q12959 (assay: holdup assay). Settings: plain residues with an end cap or a label only (N-terminal biotin on a linker: ado-ado).
Parameters: key: below the threshold = too weak to quantify, mostly under pKd 3.1 to 4

Row | Binder | pKd
5 | YYKRPVQEWV [MMP24, Q9Y5R2] | below the threshold
6 | SKSNFGSEPL [KIF17, Q9P2E2] | below the threshold

These binders were tested against DLG1_3, Q12959 (assay: holdup assay). Settings: plain residues with an end cap or a label only (N-terminal biotin on a linker: ado-ado).
Parameters: key: below the threshold = too weak to quantify, mostly under pKd 3.1 to 4

Row | Binder | pKd
7 | YYKRPVQEWV [MMP24, Q9Y5R2] | below the threshold
8 | SKSNFGSEPL [KIF17, Q9P2E2] | below the threshold

What follows are binders tested against T2, DLG3_1, Q92796 (assay: holdup assay). Settings: plain residues with an end cap or a label only (N-terminal biotin on a linker: ado-ado).
Parameters: key: below the threshold = too weak to quantify, mostly under pKd 3.1 to 4

Row | Binder | pKd
9 | YYKRPVQEWV [MMP24, Q9Y5R2] | below the threshold
10 | SKSNFGSEPL [KIF17, Q9P2E2] | below the threshold

These binders were tested against T3, DLG3_2, Q92796 (assay: holdup assay). Settings: plain residues with an end cap or a label only (N-terminal biotin on a linker: ado-ado).
Parameters: key: below the threshold = too weak to quantify, mostly under pKd 3.1 to 4

Row | Binder | pKd
11 | YYKRPVQEWV [MMP24, Q9Y5R2] | 4.23
12 | SKSNFGSEPL [KIF17, Q9P2E2] | below the threshold

Each binder was assayed against DLG4_2, P78352 (assay: holdup assay). Settings: plain residues with an end cap or a label only (N-terminal biotin on a linker: ado-ado).
Parameters: key: below the threshold = too weak to quantify, mostly under pKd 3.1 to 4

DLG4_2, P78352, sequence (P78352 155-259): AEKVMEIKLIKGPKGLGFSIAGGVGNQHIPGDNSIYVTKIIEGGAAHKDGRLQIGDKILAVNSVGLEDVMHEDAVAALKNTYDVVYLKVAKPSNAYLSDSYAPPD

Row | Binder | pKd
13 | YYKRPVQEWV [MMP24, Q9Y5R2] | 4.03
14 | SKSNFGSEPL [KIF17, Q9P2E2] | below the threshold

The binders below were run against DLG4_3, P78352 (assay: holdup assay). Settings: plain residues with an end cap or a label only (N-terminal biotin on a linker: ado-ado).
Parameters: key: below the threshold = too weak to quantify, mostly under pKd 3.1 to 4

DLG4_3, P78352, sequence (P78352 306-403): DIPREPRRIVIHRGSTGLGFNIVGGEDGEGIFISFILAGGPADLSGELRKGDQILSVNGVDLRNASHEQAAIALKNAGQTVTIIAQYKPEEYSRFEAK

Row | Binder | pKd
15 | YYKRPVQEWV [MMP24, Q9Y5R2] | below the threshold
16 | SKSNFGSEPL [KIF17, Q9P2E2] | below the threshold

What follows are binders tested against FRMPD3, Q5JV73 (assay: holdup assay). Settings: plain residues with an end cap or a label only (N-terminal biotin on a linker: ado-ado).
Parameters: key: below the threshold = too weak to quantify, mostly under pKd 3.1 to 4

FRMPD3, Q5JV73, sequence (Q5JV73 12-100): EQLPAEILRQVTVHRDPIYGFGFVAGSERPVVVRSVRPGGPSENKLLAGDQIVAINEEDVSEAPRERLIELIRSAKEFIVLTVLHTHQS

Row | Binder | pKd
17 | YYKRPVQEWV [MMP24, Q9Y5R2] | 3.55
18 | SKSNFGSEPL [KIF17, Q9P2E2] | below the threshold

These binders were tested against GOPC, Q9HD26 (assay: holdup assay). Settings: plain residues with an end cap or a label only (N-terminal biotin on a linker: ado-ado).
Parameters: key: below the threshold = too weak to quantify, mostly under pKd 3.1 to 4

Row | Binder | pKd
19 | YYKRPVQEWV [MMP24, Q9Y5R2] | below the threshold
20 | SKSNFGSEPL [KIF17, Q9P2E2] | below the threshold

The binders below were run against GORASP2, Q9H8Y8 (assay: holdup assay). Settings: plain residues with an end cap or a label only (N-terminal biotin on a linker: ado-ado).
Parameters: key: below the threshold = too weak to quantify, mostly under pKd 3.1 to 4

Row | Binder | pKd
21 | YYKRPVQEWV [MMP24, Q9Y5R2] | 5.44
22 | SKSNFGSEPL [KIF17, Q9P2E2] | below the threshold

Each binder was assayed against GRASP, Q7Z6J2 (assay: holdup assay). Settings: plain residues with an end cap or a label only (N-terminal biotin on a linker: ado-ado).
Parameters: key: below the threshold = too weak to quantify, mostly under pKd 3.1 to 4

GRASP, Q7Z6J2, sequence (Q7Z6J2 96-193): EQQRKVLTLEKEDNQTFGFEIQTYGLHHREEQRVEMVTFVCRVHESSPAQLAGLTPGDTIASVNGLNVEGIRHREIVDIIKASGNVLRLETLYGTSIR

Row | Binder | pKd
23 | YYKRPVQEWV [MMP24, Q9Y5R2] | 3.88
24 | SKSNFGSEPL [KIF17, Q9P2E2] | below the threshold

These binders were tested against T4, GRIP1_5, Q9Y3R0 (assay: holdup assay). Settings: plain residues with an end cap or a label only (N-terminal biotin on a linker: ado-ado).
Parameters: key: below the threshold = too weak to quantify, mostly under pKd 3.1 to 4

Row | Binder | pKd
25 | YYKRPVQEWV [MMP24, Q9Y5R2] | below the threshold
26 | SKSNFGSEPL [KIF17, Q9P2E2] | below the threshold

These binders were tested against IL16_1, Q14005 (assay: holdup assay). Settings: plain residues with an end cap or a label only (N-terminal biotin on a linker: ado-ado).
Parameters: key: below the threshold = too weak to quantify, mostly under pKd 3.1 to 4

IL16_1, Q14005, sequence (Q14005 210-306): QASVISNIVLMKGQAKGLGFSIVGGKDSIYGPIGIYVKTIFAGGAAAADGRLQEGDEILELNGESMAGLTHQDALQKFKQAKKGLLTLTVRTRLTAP

Row | Binder | pKd
27 | YYKRPVQEWV [MMP24, Q9Y5R2] | 3.48
28 | SKSNFGSEPL [KIF17, Q9P2E2] | below the threshold

The binders below were run against LDB3, O75112 (assay: holdup assay). Settings: plain residues with an end cap or a label only (N-terminal biotin on a linker: ado-ado).
Parameters: key: below the threshold = too weak to quantify, mostly under pKd 3.1 to 4

LDB3, O75112, sequence (O75112 1-94): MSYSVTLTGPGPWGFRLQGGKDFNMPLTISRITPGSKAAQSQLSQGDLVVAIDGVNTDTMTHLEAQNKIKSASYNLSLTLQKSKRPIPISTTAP

Row | Binder | pKd
29 | YYKRPVQEWV [MMP24, Q9Y5R2] | below the threshold
30 | SKSNFGSEPL [KIF17, Q9P2E2] | below the threshold

Each binder was assayed against T5, LIN7A, O14910 (assay: holdup assay). Settings: plain residues with an end cap or a label only (N-terminal biotin on a linker: ado-ado).
Parameters: key: below the threshold = too weak to quantify, mostly under pKd 3.1 to 4

Row | Binder | pKd
31 | YYKRPVQEWV [MMP24, Q9Y5R2] | below the threshold
32 | SKSNFGSEPL [KIF17, Q9P2E2] | below the threshold

These binders were tested against MAGI1_2, Q96QZ7 (assay: holdup assay). Settings: plain residues with an end cap or a label only (N-terminal biotin on a linker: ado-ado).
Parameters: key: below the threshold = too weak to quantify, mostly under pKd 3.1 to 4

MAGI1_2, Q96QZ7, sequence (Q96QZ7 456-580): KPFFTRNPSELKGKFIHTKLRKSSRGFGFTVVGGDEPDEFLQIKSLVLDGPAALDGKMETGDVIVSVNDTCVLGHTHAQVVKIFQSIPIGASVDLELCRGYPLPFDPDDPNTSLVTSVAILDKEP

Row | Binder | pKd
33 | YYKRPVQEWV [MMP24, Q9Y5R2] | below the threshold
34 | SKSNFGSEPL [KIF17, Q9P2E2] | below the threshold

The binders below were run against MAGI2_2, Q86UL8 (assay: holdup assay). Settings: plain residues with an end cap or a label only (N-terminal biotin on a linker: ado-ado).
Parameters: key: below the threshold = too weak to quantify, mostly under pKd 3.1 to 4

MAGI2_2, Q86UL8, sequence (Q86UL8 410-522): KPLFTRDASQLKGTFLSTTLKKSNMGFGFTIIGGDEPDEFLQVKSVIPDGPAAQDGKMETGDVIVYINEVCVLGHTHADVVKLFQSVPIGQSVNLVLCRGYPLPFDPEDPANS

Row | Binder | pKd
35 | YYKRPVQEWV [MMP24, Q9Y5R2] | below the threshold
36 | SKSNFGSEPL [KIF17, Q9P2E2] | below the threshold

The binders below were run against MAGI3_2, Q5TCQ9 (assay: holdup assay). Settings: plain residues with an end cap or a label only (N-terminal biotin on a linker: ado-ado).
Parameters: key: below the threshold = too weak to quantify, mostly under pKd 3.1 to 4

MAGI3_2, Q5TCQ9, sequence (Q5TCQ9 398-503): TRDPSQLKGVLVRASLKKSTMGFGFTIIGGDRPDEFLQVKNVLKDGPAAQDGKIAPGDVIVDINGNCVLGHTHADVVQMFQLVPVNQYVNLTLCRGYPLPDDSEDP

Row | Binder | pKd
37 | YYKRPVQEWV [MMP24, Q9Y5R2] | 3.85
38 | SKSNFGSEPL [KIF17, Q9P2E2] | below the threshold

These binders were tested against T6, MPP6, Q9NZW5 (assay: holdup assay). Settings: plain residues with an end cap or a label only (N-terminal biotin on a linker: ado-ado).
Parameters: key: below the threshold = too weak to quantify, mostly under pKd 3.1 to 4

Row | Binder | pKd
39 | YYKRPVQEWV [MMP24, Q9Y5R2] | below the threshold
40 | SKSNFGSEPL [KIF17, Q9P2E2] | 3.66

These binders were tested against PDLIM1, O00151 (assay: holdup assay). Settings: plain residues with an end cap or a label only (N-terminal biotin on a linker: ado-ado).
Parameters: key: below the threshold = too weak to quantify, mostly under pKd 3.1 to 4

PDLIM1, O00151, sequence (O00151 1-87): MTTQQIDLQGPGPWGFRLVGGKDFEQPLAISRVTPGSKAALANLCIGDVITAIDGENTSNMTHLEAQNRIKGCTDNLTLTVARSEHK

Row | Binder | pKd
41 | YYKRPVQEWV [MMP24, Q9Y5R2] | below the threshold
42 | SKSNFGSEPL [KIF17, Q9P2E2] | below the threshold

The binders below were run against T7, RADIL, Q96JH8 (assay: holdup assay). Settings: plain residues with an end cap or a label only (N-terminal biotin on a linker: ado-ado).
Parameters: key: below the threshold = too weak to quantify, mostly under pKd 3.1 to 4

Row | Binder | pKd
43 | YYKRPVQEWV [MMP24, Q9Y5R2] | 5.63
44 | SKSNFGSEPL [KIF17, Q9P2E2] | below the threshold

Each binder was assayed against SCRIB_2, Q14160 (assay: holdup assay). Settings: plain residues with an end cap or a label only (N-terminal biotin on a linker: ado-ado).
Parameters: key: below the threshold = too weak to quantify, mostly under pKd 3.1 to 4

SCRIB_2, Q14160, sequence (Q14160 857-960): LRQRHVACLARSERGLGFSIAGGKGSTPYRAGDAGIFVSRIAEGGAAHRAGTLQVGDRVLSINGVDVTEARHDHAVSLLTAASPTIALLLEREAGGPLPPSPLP

Row | Binder | pKd
45 | YYKRPVQEWV [MMP24, Q9Y5R2] | below the threshold
46 | SKSNFGSEPL [KIF17, Q9P2E2] | below the threshold

The binders below were run against SCRIB_3, Q14160 (assay: holdup assay). Settings: plain residues with an end cap or a label only (N-terminal biotin on a linker: ado-ado).
Parameters: key: below the threshold = too weak to quantify, mostly under pKd 3.1 to 4

SCRIB_3, Q14160, sequence (Q14160 999-1103): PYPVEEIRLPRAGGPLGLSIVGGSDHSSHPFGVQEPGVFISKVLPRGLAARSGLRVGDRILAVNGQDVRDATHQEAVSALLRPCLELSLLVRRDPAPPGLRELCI

Row | Binder | pKd
47 | YYKRPVQEWV [MMP24, Q9Y5R2] | 3.52
48 | SKSNFGSEPL [KIF17, Q9P2E2] | below the threshold

Each binder was assayed against T8, SHANK1, Q9Y566 (assay: holdup assay). Settings: plain residues with an end cap or a label only (N-terminal biotin on a linker: ado-ado).
Parameters: key: below the threshold = too weak to quantify, mostly under pKd 3.1 to 4

Row | Binder | pKd
49 | YYKRPVQEWV [MMP24, Q9Y5R2] | below the threshold
50 | SKSNFGSEPL [KIF17, Q9P2E2] | below the threshold

Each binder was assayed against T9, SIPA1L2, Q9P2F8 (assay: holdup assay). Settings: plain residues with an end cap or a label only (N-terminal biotin on a linker: ado-ado).
Parameters: key: below the threshold = too weak to quantify, mostly under pKd 3.1 to 4

Row | Binder | pKd
51 | YYKRPVQEWV [MMP24, Q9Y5R2] | below the threshold
52 | SKSNFGSEPL [KIF17, Q9P2E2] | below the threshold

These binders were tested against TJP1_2, Q07157 (assay: holdup assay). Settings: plain residues with an end cap or a label only (N-terminal biotin on a linker: ado-ado).
Parameters: key: below the threshold = too weak to quantify, mostly under pKd 3.1 to 4

TJP1_2, Q07157, sequence (Q07157 181-274): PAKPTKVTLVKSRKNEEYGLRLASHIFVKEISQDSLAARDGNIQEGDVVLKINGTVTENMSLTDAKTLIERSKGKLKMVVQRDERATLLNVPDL

Row | Binder | pKd
53 | YYKRPVQEWV [MMP24, Q9Y5R2] | 4.1
54 | SKSNFGSEPL [KIF17, Q9P2E2] | below the threshold

Each binder was assayed against TJP2_1, Q9UDY2 (assay: holdup assay). Settings: plain residues with an end cap or a label only (N-terminal biotin on a linker: ado-ado).
Parameters: key: below the threshold = too weak to quantify, mostly under pKd 3.1 to 4

TJP2_1, Q9UDY2, sequence (Q9UDY2 24-128): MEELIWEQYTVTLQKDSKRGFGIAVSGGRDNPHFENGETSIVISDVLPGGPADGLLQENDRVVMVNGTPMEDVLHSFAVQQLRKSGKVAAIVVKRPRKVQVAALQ

Row | Binder | pKd
55 | YYKRPVQEWV [MMP24, Q9Y5R2] | 6.12
56 | SKSNFGSEPL [KIF17, Q9P2E2] | below the threshold
